Source: a protein production outcome set (Wang et al. 2014)

Experiment: label from the status in PepcDB records

| Sequence | protein production |
| --- | --- |
| MNGDDDAKRSGKRLPDQPAKTQRTKGPVSFPSTVSLASLCEEGATASSNLDLLASCSSVQGSEDCDCEGHQPESERRLKRPRQAPWAAEPANQRRPPFDHGNSESIPPAGVQSQGTSASNGTDSSERKSTEATWSRQSVDCSTAEKLAGNLCANQVSAERSGQFYTKVNELLHDLHKERVSRQCRSPHES | failed |
| MNGDFYVDTTCIDCDTCRWMTPEVFHRVDEMSAVYHQPTNETERLAALQALLSCPTSSIGTVEKLEHHHHHH | failed |
| MNGDRTGLGSTRLGRIAIAGGKQLLGKINSARKNFPMKIFLLLLGFYTANALATILGQTGDWDVLVAGIVVAAIEGIGMLMYKKPSSSMFSGKLQSFVVFMNFWKAGVCLGLFVDAFKLGS | failed |
| MNGRVDYLVTEEEINLTRGPSGLGFNIVGGTDQQYVSNDSGIYVSRIKENGAAALDGRLQEGDKILSVNGQDLKNLLHQDAVDLFRNAGYAVSLRVQHRLQVQNGPI | not failed |
| MNGTELRETLEDLIKEVVQASREALDTQGELNERNEAALRTLEAQWRQRLIEELHEQGSLRVVLCRTDLLVPGSGATGTTTTNRTDPLRYVYETLRQRDPRERRRSLPPERSSQSSELEDTGTDSGEALSSGDDDDEISQVAGQPEPETANYVLSQYERVLAPSTNKQRIWRVFLRDAMVHINGQDLLLNQLQCQFDW | not failed |
| MNGVFAINFFVMALMLALYISESFGAIILLFFYKDGSKKVTPYVVPIWELTGTFIAFWVVTSDFAYPSILVPAAFIYAVPLLILLIAFIGRNAFIIFGEFIKKGFIDEKAMYKIFSIFECIFCLVFVIFASSVVTGGGVILSKLAFNVGKWATTPGDVLFVVGTVIFIFGLSFIFYGLEKYKLHSIVLTYIGIILAVVAFVQIHLSISTVPLSPVLAIPILIGILAPILFYIDSTRKIVENKIFFLALLVISVYPFYSLVYPKFFGGTLPVSAFLTNSPMATAYFYITLGGGILLIAMLAYMVYVANGFNKMVAEKA | failed |
| MNHASDLILIGSTLLLALAAHAVGQKVHVPRVTLLLLLGALAGPDLLDLLPDNADQSFSLITQLTLAMVGFLLGERMSARDLRQGKEALIVSLAVTLLTAAAVILAVWAVTGNLPAALLLGGIATATAPAATLDVLREAGANGPLTRLVFQVVAIDDAWGAILFSVLLVAAGLLLGNGDLSGPTAMLHGLWEVAGSVLLGMVLGFPMAWLTGRLRPGEPMLLESAGFVFVAAGLASWFGLSYLLTCMTLGIVVANRARHHVRPFRSIEGISEPFLALFFFMAGYQLDWLALPTLGALGLAYVLARIGGRLAGGYLGGLLAGSAPETRQRIGACLMPQAGVALGLALVATERLPELGYILPLVIGATVVFELIGPPMTLLQLRKAGETGQGYQEEPDE | failed |
| MNHPIVGLIAAVVLAIGVVELHLWLPAIQSVSPLLISIGVGILVSHILPARCKEPLAPGLNIAKGSILRVAIVLYGFNITLQALSQVGIYGLFSAVTMVSVILFVGIWAGTKLFKLDKEQAILVAVGSAICGAAAVAAMEPIIKAKPHKVITAISTVVVFGTLSMLLMPLVFQFFDINEAQYGLWVGVSVHEVAQVVVAGDSVSSNAAHMAVLEKMLRVVLLVPVLLTFAVWMRQKSKGSDKESGDNKVSVPWFAFLFIGAIIINSLNWIPDDVTTAFTAAATYLLCIAMTALGMLTHISVIKQGGAKAFALAALLFVSLFITGYLLAQFA | failed |
| MNHPYRWVIVAAGGVLGCVAAGAMFSLPVLIRPMSQDTGWSVTGISTAMTIGFLAMAAASMVWGNLSDRFGPRPVVLTGSVVLAASLALGSRATSLIEFQLLFGALVGAATAAVFAPMMACVTGWFDTGRGLAVSLVSAGMGMAPLTMAPLAAWLVTIHDWRGAMLIISAITAALMIPAALLVRRPPALEPGGAEGAWADAQDDMTLRQAVRSPQFVTLLLANFFCCATHSGPIFHTVSYAVTCGIPMIAATSIYSVEGLSGMFGRLGFGLAGDRFGAQRVLVIGLLAQAFGVLAYAFVGGLGGFYAVAVAVGFIYAGTMPLYAVIIRENFPLRMMGTIVGGTAMAGSLGMSTGPVLGGLIYDAYDSYAPMYVASCGMGLAAMLILATFRPFPQRRGELAVA | failed |
| MNHRHYGNFMAALSFVIWGLLPVYYRFLHNAAMDELLAWRIIGSVPVGILIVYAVTRHWPNWSQVWRDKKSLWYTFVASSLMCISWSAFTWALTHHRVIDASLGFFIGPLVSVALGVFVLGDKLSKGQLIAILLATCGVLYQVFQYGQLPFVALTMGLFFALYGLYKKKINYDWSTTLFIEALVLAPFALGYLLFKQWTTGELASSVDTTTLLLYFGSAPITILPLIFYSIAIRITNLSTVGLMQYIEPSLQFILAVVFFGELFDDVKAVTFAFIWVGLLLTIFEGVAKGIKRKKLANHSV | failed |
| MNHSNLTILSVCSNFVIVVLKLIVGFFTGSVAVISEGIHSSMDLFASIITFFSIRISNQPADEDHPYGHGKAENIAGTIETLLIFVAGIWIIVESVNKLVNPHEIRFPALGIMVMLFGAIVNIIVSRIIKKAADEANSVAMKSNALHLYTDVFTSLGIALSLFLVYITGWLWLDPVIAILTAFYIMYEAYKLLKESFPPLMDKRLSADEEEAIKQIILAHKTRFIEFHDFRSRRAGAEEYIDFHLVVSSSMTIESAHSLCDEIEAEIMNFYAKAEVLIHLEPEEERVLTRI | failed |
| MNIELFIQRAEALHKQLADLYQTASVLPWIPPDLLPQAFKELYSNSKLVQLAAEELYHQNEELIQTRSLLEAERQHYHDLFEFAPDGYLVTNAEGIIQEANLTATKLFNAPKHILVDRSVINFIRLEERESFHCELNQLFQTDKAKKLIVRLHQFHGESFDALLTISVVRSQNGKIKSLHWLLSHINENQQQSLGLVNHENYLSQNRPVYVYAKGENIPLNPLVIWYVRQGLVKLSTFCETGEEVLTGLAKTHMVFGSSMTKLPIYQATALADVELVSINFAEIAVSQMLSHILLPKINQQLQQKESFLVITGRRKIEDRLYHLLQFLKQEIGEPVGEKTRLSVRFTHEDIASACCTTRVTITRLMGKLQQQGLISFDSKKHMIINKRLEDRE | failed |
| MNIEQQLYDVVKQLIEQRYPNDWGGAAAIRVEDGTIYTSVAPDVINASTELCMETGAILEAHKFQKKVTHSICLARENEHSELKVLSPCGVCQERLFYWGPEVQCAITNAKQDIIFKPLKELQPYHWTEAYHDEMVKEWSTR | not failed |
| MNIFEQTPPNRRRYGLAAFIGLIAGVVSAFVKWGAEVPLPPRSPVDMFNAACGPESLIRAAGQIDCSRNFLNPPYIFLRDWLGLTDPNAAVYTFAGHVFNWVGVTHIIFSIVFAVGYCVVAEVFPKIKLWQGLLAGALAQLFVHMISFPLMGLTPPLFDLPWYENVSEIFGHLVWFWSIEIIRRDLRNRITHEPDPEIPLGSNR | failed |
| MNIKREQVFVWSGKIRLFHWINVIAILLLIVIGVVILNGKLFGVSTDGKILLKTIHVIVGYVFATNLIFRLIIAFIGKTYEKWGKMLPFNKGFTEELIEFTQQKRLTYKGHNPAGKLMVLALLSFMSVQMISGLVIAGTDIYYPPFGNYFIQSIAIDKDNLAVIKPYSKENIDEASYQAMRDFRKPFITAHVYSFYCLLFLIPLHIIGVIVAERRERSAIVSAMFNGYKYLPKDEPTDH | failed |
| MNILKMKKTGIFLGGVLFGTVGVKILSSDCVKKTCTRATAGALKVKDSVLETTTKIQENVEDILAEAKEINEQEDLSTSKVNVVQDTLKCEQEVLKTETIKTVEDTNSNSIKCEEIKDNVIEEKNSTCTTE | failed |
| MNILKRKTPQNIRFGEQKPKYYFHIRAFAVLLGVFFLLGVYFNWQSILEKMDDKPISAFALVGQNTFTTADDIKESLLKMGELKGFWGQDVAPIQEQIEALPWVKGAIVRKMWPNRLSIWVSEYQPVAFWNQNQFVTLDGIVFQLPSVRLTAKNLPYLGGPDYQSLKVIETWNQIYINLKSNNIMAKGINIDDRGAWQVQLDNDIVLKLGRGDWKSKLERFVTIYPQIDVPENKKIDYIDLRYTAGAAVGMVDR | failed |
| MNILLAGGSGLIGQELVRGMGEEHHYTVLGRDKDAIQKIFTTKASSLSWDELNTQDASRFDAVINLCGVNIAISRWTPKIKEEIISSRVQTTENLLHWILQQNAKPRFYCANAVGIYGLQENGDATDLTEDTAINWEHPKDYLSEVGIRWQQALQKAEEAGLPVTSTRFGVVLKKGKGFLGKLYPSFICGLGSTIGDGRQYLSWIDSEDLVNAYRFLLNHPEITGPVNVTSPNPCMQREFAKAFAKSLHRPLLLWTPAFIIHLLFGEMGDCLINHGQKVKPKRLLEAGFEFKWPDIEKALKHQYSAILEHHHHHH | not failed |
| MNIMRTAMLLAFMTALFMGVGYLVGGSNGMVIALLMAGGLNFFSYWNSDKIVLRMYGAREVDQHSSPVYYKIVSDLARRASLPQPKVYIIDNAQPNAFATGRNPQNAAVAASTGLLNQLSAEEVAGVMAHELAHIEHRDTLTMTLTATIAGAISMLGNFAFFMGGQRHSSENSHSTGAIGGLLALFVAPFAAMLVQMAISRTREYAADRRGAEICGNPLWLASALSKIAGGGHTVYNEEAEHNPATAHMFIINPLRGEGADSLFSTHPATANRIAALRRQAEEMKGARVENMGWNEKIGLHKKSSDFRDLNSGAQTSVFNEESTVQRIKKRPSWLRYGDSKRPRS | failed |
| MNINVKDIIADSHLAFLNQENETALRLARQAISLAPDNPDAYRCAGNACMSLDRYDEAIEYYRTAVKYDPDNGNRYYDLGFALASAERFSDALKNLAKAEELGCTPENLVQLYNLLGILCFDIGRYDDALVNLNKAEKLIGIDVDILKRKAVIYGIKNDIKNGLMTANQIKLVTPSEYTGYQIAFKLLVQAKRLDEAEKELERARKYASPTMDFYFDYMTLELEKYKTDNDKEHFKTALGMIEKALKTVKPTVKEVVESYINAAEIYLQLEDADRAIECLNAAQNPIWAYNNGFDVVVRNYEPVTLTEYDIEDMIEADRKKIEEQFGDYGFEEMVESIEPDEEGNRDYLTVIEDEVKSDAKEDSEVYKLDESEKVEYSSDNIDQINRLYVGAYTVKKDFEKVIEYSRKLQASENTYSVYLGKYTEANAMKELGLPDFAAKYEEIIKFFRNAMIKDPTDLTAVTFRVQCYIDIGQYDEAEQLCSLLTKEVRNSFMEKIKKAKSGGEQH | failed |
| MNIQDYPDRDMLAIDLANHLAGELEATLFTHDSATLAVAGGTTPGPVFDVLCAADLDWHRVMVLPTDERCVPQDHSRANARLIAERLLVNRAASARYLPLYLPGAEPEDCLAEVEALLTPALPLSVLVLGMGEDMHTASLFAGMPGLAAALDADAPALAVARPETQPENRITLTAPVLNGALSKHLIIYGAAKRKALERAMSMHPEEAPIAAVLDGITVHW | failed |
| MNIRMGTKGKRPLRSLTPRDKIHAIQRIHDGESKASVARDIGVPESTLRGWCKNEDKLRFMSRQSATDNLCADALGDKMDGGGGGGGGAGGGGLLGPPEKRQRLDGALPLNFSNKLKFDELAFKRSPLNGLDYSTNKNLADLGYNGLPVDYAAFNGGVKAKVFGADINRPAADPSLNAISPLSSLTHLSGLTGISQSPLAISFNELTTNLNLLAQLNPGLAAMSGLNSF | not failed |
| MNIVIAGAGEVGTHLAKMLSQEEQNIVLIDPNPKRLELAAMRSELLPQVGNPLSPSDLLQANVKYADLFISVMPEEADNILACALASRLGAGKTLARINNNEFLKPDMAQYFRDMGVHTMIYPELLAAREIVSTIKNPWARQYVELFDGALVLVGVKVREGAHIVGKYLHELTRTGNKIFHIVAIKRDLETIIPKGGTQVLHGDIVFFATAQNHLDEVRKLAGKDNPPVHKVVIMGGSRIAIRSIEMIPRNIQVAIIEKDKEKSMRISAIAPTNVQVYNGDGRDSDILIEAGLDQTDVFIALTENSETNVLACLGAKRFGVFKTIAKEENIDYISLADRLDIGTLINKKLLAAGSIYRIFLGEDTSTVKCLTLANADVAELVAHRGAPVTKRPVKDLNIPEGITFGGMVRNGVPQMIHGDTVIEPYDHVVVFCLNTPLNILKDFFG | failed |
